Here are results for 2 substances from article PMC10215022.

Experiment [1] addresses SARS-CoV-2 Omicron BA.5 spike protein, plate-bound (MSD V-PLEX) (SARS-CoV-2 Omicron BA.5).
The target in experiment [2] is SARS-CoV-2 Wuhan (WT) spike protein RBD, His-tagged (SARS-CoV-2 Wuhan (WT)) (UniProt P0DTC2). Description: SPR.

Take “REGEN-COV mAb cocktail (casirivimab and imdevimab at 1:1 molar ratio)”: the IC50 in experiment [1] was determined as 5.2 nM.
As for “decavalent IgM ACE2 decoy (from UniProt Q9BYF1;P01591) (Fc fusion)”, in experiment [2], the Kd amounted to 0.097 nM, the dissociation rate constant (koff) is 3.5e-05 s⁻¹ and the kon worked out at 380000 M⁻¹ s⁻¹.
